Reference: PMC12524584, “Structures, Interactions, and Antimicrobial Activity of the Shortest Thanatin Peptide from Anasa tristis” (International Journal of Molecular Sciences, 2025)
Bridges are numbered along the chain shown (N, C = ends). Where no end group is shown, it is not given here.

Target: T1, LptAm of Klebsiella pneumoniae (truncated but functional variant of the LPS transport periplasmic protein … (Klebsiella pneumoniae, UniProt A0A377YZM8 28-159, 15N-labeled))
T1 construct: LptA, periplasmic LPS transport protein of Klebsiella pneumoniae, amino acids 28-159 (LptAm); synthetic gene in pET24a(+); also called 15N-LptAm; source: E. coli BL21, purified (Ni-NTA, size-exclusion chromatography), 15N-labeled in M9 minimal medium
T1 sequence: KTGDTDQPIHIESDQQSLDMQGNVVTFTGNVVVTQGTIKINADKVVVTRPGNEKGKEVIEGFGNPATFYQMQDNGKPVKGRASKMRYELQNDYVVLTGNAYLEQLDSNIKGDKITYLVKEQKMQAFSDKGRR
Test: NMR titration; 15N-1H HSQC of 15N-LptAm free and with Ana-thanatin at protein:peptide molar ratios 1:1 and 1:2; 298 K
Details: both partners purified

B1: Ana-thanatin (16-residue thanatin from Anasa tristis) (peptide)
peptide: VPIYYCNRKTGKCRRL
modifications: disulfide 6-13 (inferred)
notes: thanatin of the squash bug Anasa tristis, 16 residues, V1-L16; Single disulfide-bonded beta-hairpin peptide; the disulfide would join C6 and C13, the only two Cys; also called Anasa tristis thanatin; Ana-thanatin peptide; source: synthetic peptide (chemically synthesized by GenScript)
- stoichiometry N: 1
